# Data reported in US20250121087A1, “ANTIBODY-DRUG CONJUGATES COMPRISING ANTI-B7-H3 ANTIBODIES” (priority 2020, published 2025).
# Experiments:
# [1] = molecular target: T1, mouse B7-H3 (Mus musculus, UniProt Q8VE98); assay: Biacore (SPR) binding kinetics, mouse B7-H3; details: analyte Mouse B7-H3, antibody as immobilized ligand
# T1 construct: purchased Sino biological Inc
# T1 sequence (Q8VE98 29-316): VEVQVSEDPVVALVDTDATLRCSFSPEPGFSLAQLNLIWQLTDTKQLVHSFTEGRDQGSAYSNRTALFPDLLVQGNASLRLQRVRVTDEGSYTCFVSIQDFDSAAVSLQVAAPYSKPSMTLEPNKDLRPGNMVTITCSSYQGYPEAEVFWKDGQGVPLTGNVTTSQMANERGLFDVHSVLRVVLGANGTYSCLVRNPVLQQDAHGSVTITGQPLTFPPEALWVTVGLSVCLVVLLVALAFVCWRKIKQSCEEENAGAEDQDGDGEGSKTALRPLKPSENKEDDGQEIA
# Experimental: (§1) The binding affinity of the purified anti-B7-H3 monoclonal antibodies was determined by BLI-based OCTET or SPR-based Biacore. Further the binding kinetics of the antibodies binding to human, cynomolgus monkey and mouse B7-H3 antigen are shown in Table 37.
# (§2) A Biacore 8K (GE Life science) instrument was used to measure the binding kinetics about several B7-H3 variants (analyte) binding to various mAbs (ligands). Antibodies were captured onto the immobilized anti-human Fc antibody (GE Life science). Anti-Fc antibodies were immobilized to approximately 7,000 RU on CM5 sensor chip using a standard amine coupling method on both active cell and reference cell. For binding kinetic measurements, the HBS-EP+ was used for running buffer (10 mM Hepes, pH7.4, 150 mM NaCl, 3 mM EDTA, 0.05% polysorbate20). Anti-B7-H3 antibodies were diluted to 0.5 ug/mL in running buffer and injected for 110 s on active cells only. After capturing ligand, various B7-H3 antigens were analyzed for 120 s and the dissociation was monitored for 600 s at a flow rate of 30 ul/min. […] Kinetic information was calculated by fitting data to a 1:1 binding model using Biacore Insight Evaluation software (GE Life Science) to determine ka (association constant), kd (dissociation constant), and KD (equilibrium dissociation constant).
# [2] = test system: cynomolgus monkey B7-H3; assay: Biacore (SPR) binding kinetics, cynomolgus monkey B7-H3; details: analyte Cyno B7-H3, antibody as immobilized ligand
# Experimental: as §1, §2
# [3] = molecular target: T2, human 2Ig B7-H3 (Homo sapiens, UniProt Q5ZPR3); assay: Biacore (SPR) binding kinetics, human 2Ig B7-H3; details: analyte Human 2IgB7-H3, antibody as immobilized ligand
# T2 construct: purchased Acrobiosystems
# T2 sequence (Q5ZPR3 29-316 isoform Q5ZPR3-2 limits assumed): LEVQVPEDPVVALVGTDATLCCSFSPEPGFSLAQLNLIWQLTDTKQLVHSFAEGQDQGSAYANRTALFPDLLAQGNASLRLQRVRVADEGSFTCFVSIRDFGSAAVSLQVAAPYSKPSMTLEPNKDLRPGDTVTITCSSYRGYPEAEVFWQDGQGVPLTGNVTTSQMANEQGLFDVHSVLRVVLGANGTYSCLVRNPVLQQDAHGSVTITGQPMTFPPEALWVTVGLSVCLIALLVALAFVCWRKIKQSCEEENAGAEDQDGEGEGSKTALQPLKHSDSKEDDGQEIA
# Experimental: as §1, §2
# [4] = molecular target: T3, human 4Ig B7-H3 (Homo sapiens, UniProt Q5ZPR3); assay: Biacore (SPR) binding kinetics, human 4Ig B7-H3; details: analyte Human 4IgB7-H3, antibody as immobilized ligand
# T3 construct: purchased Y-Biologics Inc
# T3 sequence (Q5ZPR3 29-534): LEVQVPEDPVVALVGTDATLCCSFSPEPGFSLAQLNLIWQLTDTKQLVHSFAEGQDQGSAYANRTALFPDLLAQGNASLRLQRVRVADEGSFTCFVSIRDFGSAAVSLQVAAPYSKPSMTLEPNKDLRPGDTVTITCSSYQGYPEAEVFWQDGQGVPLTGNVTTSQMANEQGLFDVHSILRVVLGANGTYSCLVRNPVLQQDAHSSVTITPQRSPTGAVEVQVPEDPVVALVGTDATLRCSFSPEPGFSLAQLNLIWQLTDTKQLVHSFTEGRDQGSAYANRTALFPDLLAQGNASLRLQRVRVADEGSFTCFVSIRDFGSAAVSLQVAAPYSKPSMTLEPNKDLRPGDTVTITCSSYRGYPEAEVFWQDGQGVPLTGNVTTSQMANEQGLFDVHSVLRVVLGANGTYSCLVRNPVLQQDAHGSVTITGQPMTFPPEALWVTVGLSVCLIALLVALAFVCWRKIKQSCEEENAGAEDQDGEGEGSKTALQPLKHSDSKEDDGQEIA
# Experimental: as §1, §2
# [5] = molecular target: T4, B7-H3 (Homo sapiens, UniProt Q5ZPR3); details: Table 1, development state of B7-H3 ADC; cited from earlier work
# T4 sequence (Q5ZPR3 29-534): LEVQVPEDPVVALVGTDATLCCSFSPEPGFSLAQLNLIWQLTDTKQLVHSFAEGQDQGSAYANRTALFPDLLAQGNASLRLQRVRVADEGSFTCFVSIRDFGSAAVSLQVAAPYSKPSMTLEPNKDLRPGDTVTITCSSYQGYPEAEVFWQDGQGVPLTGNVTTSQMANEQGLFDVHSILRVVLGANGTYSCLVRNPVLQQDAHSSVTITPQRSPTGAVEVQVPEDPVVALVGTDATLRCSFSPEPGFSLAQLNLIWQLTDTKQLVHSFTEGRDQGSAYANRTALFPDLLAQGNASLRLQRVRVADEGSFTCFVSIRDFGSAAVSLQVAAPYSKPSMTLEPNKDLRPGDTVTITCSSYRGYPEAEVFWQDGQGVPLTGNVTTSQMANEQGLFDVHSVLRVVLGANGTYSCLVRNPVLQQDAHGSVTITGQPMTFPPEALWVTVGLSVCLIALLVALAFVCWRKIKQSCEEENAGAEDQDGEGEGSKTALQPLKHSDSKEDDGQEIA
Molecule,Ka [1] [M⁻¹ s⁻¹],Kd [1] [s⁻¹],Ka [2] [M⁻¹ s⁻¹],Kd [2] [s⁻¹],Ka [3] [M⁻¹ s⁻¹],Kd [3] [s⁻¹],Ka [4] [M⁻¹ s⁻¹],Kd [4] [s⁻¹],Kd [5] [nM]
"AB2 (antibody, V domains shown) VH: QVQLVESGAEVKKPGASVKLSCKASGYTFSSYWMHWVRQAPGQRLEWMGEINPGNGHTNYNEKFKSRVTITVDKSASTAYMELSSLRSEDTAVYYCVADPRRPKVPTALFVYWGQGTLVTVSS VL: DIQMTQSPSSVSASVGDRVTISCRASQGIGTWLAWYQQKPGKAPRLLIYAASSLDSGVPSRFSASGSGTDFTLTISSLQPEDFATYYCQQAINFPITFGQGTRLEIK",408000,0.0193,481000,0.000442,206000,0.00515,446000,0.000199,–
"Enoblituzumab (antibody, chains of the INN, looked up) heavy: EVQLVESGGGLVQPGGSLRLSCAASGFTFSSFGMHWVRQAPGKGLEWVAYISSDSSAIYYADTVKGRFTISRDNAKNSLYLQMNSLRDEDTAVYYCGRGRENIYYGSRLDYWGQGTTVTVSSASTKGPSVFPLAPSSKSTSGGTAALGCLVKDYFPEPVTVSWNSGALTSGVHTFPAVLQSSGLYSLSSVVTVPSSSLGTQTYICNVNHKPSNTKVDKRVEPKSCDKTHTCPPCPAPELVGGPSVFLLPPKPKDTLMISRTPEVTCVVVDVSHEDPEVKFNWYVDGVEVHNAKTKPPEEQYNSTLRVVSVLTVLHQDWLNGKEYKCKVSNKALPAPIEKTISKAKGQPREPQVYTLPPSREEMTKNQVSLTCLVKGFYPSDIAVEWESNGQPENNYKTTPLVLDSDGSFFLYSKLTVDKSRWQQGNVFSCSVMHEALHNHYTQKSLSLSPG light: DIQLTQSPSFLSASVGDRVTITCKASQNVDTNVAWYQQKPGKAPKALIYSASYRYSGVPSRFSGSGSGTDFTLTISSLQPEDFATYYCQQYNNYPFTFGQGTKLEIKRTVAAPSVFIFPPSDEQLKSGTASVVCLLNNFYPREAKVQWKVDNALQSGNSQESVTEQDSKDSTYSLSSTLTLSKADYEKHKVYACEVTHQGLSSPVTKSFNRGEC",–,–,–,–,–,–,–,–,7
